The source of these data is patent publication US20160000865A1 (REGENTS OF THE UNIVERSITY OF MICHIGAN, published 2016).

To fix the notation:
B1: Extracellular Ig2 domain of Robo1 fused with GST (other, human, UniProt Q9Y6N7 170-257, looked up)
chain: DDFRQNPSDVMVAVGEPAVMECQPPRGHPEPTISWKKDGSPLDDKDERITIRGGKLMITYTRKSDAGKYVCVGTNMVGERESEVAELT
notes: domain: extracellular Ig2 domain; also called GST-Ig2; not shown: glutathione S-transferase of the PGEX6P1 vector
B2: Endogenous Robo1 of mouse small intestinal crypts (receptor, UniProt O89026 20-1612, looked up)
chain: SRLRQEDFPPRIVEHPSDLIVSKGEPATLNCKAEGRPTPTIEWYKGGERVETDKDDPRSHRMLLPSGSLFFLRIVHGRKSRPDEGVYICVARNYLGEAVSHNASLEVAILRDDFRQNPSDVMVAVGEPAVMECQPPRGHPEPTISWKKDGSPLDDKDERITIRGGKLMITYTRKSDAGKYVCVGTNMVGERESEVAELTVLERPSFVKRPSNLAVTVDDSAEFKCEARGDPVPTVRWRKDDGELPKSRYEIRDDHTLKIRKVTAGDMGSYTCVAENMVGKAEASATLTVQEPPHFVVKPRDQVVALGRTVTFQCEATGNPQPAIFWRREGSQNLLFSYQPPQSSSRFSVSQTGDLTITNVQRSDVGYYICQTLNVAGSIITKAYLEVTDVIADRPPPVIRQGPVNQTVAVDGTLILSCVATGSPAPTILWRKDGVLVSTQDSRIKQLESGVLQIRYAKLGDTGRYTCTASTPSGEATWSAYIEVQEFGVPVQPPRPTDPNLIPSAPSKPEVTDVSKNTVTLSWQPNLNSGATPTSYIIEAFSHASGSSWQTAAENVKTETFAIKGLKPNAIYLFLVRAANAYGISDPSQISDPVKTQDVPPTSQGVDHKQVQRELGNVVLHLHNPTILSSSSVEVHWTVDQQSQYIQGYKILYRPSGASHGESEWLVFEVRTPTKNSVVIPDLRKGVNYEIKARPFFNEFQGADSEIKFAKTLEEAPSAPPRSVTVSKNDGNGTAILVTWQPPPEDTQNGMVQEYKVWCLGNETKYHINKTVDGSTFSVVIPSLVPGIRYSVEVAASTGAGPGVKSEPQFIQLDSHGNPVSPEDQVSLAQQISDVVRQPAFIAGIGAACWIILMVFSIWLYRHRKKRNGLTSTYAGIRKVPSFTFTPTVTYQRGGEAVSSGGRPGLLNISEPATQPWLADTWPNTGNNHNDCSINCCTAGNGNSDSNLTTYSRPADCIANYNNQLDNKQTNLMLPESTVYGDVDLSNKINEMKTFNSPNLKDGRFVNPSGQPTPYATTQLIQANLSNNMNNGAGDSSEKHWKPPGQQKPEVAPIQYNIMEQNKLNKDYRANDTIPPTIPYNQSYDQNTGGSYNSSDRGSSTSGSQGHKKGARTPKAPKQGGMNWADLLPPPPAHPPPHSNSEEYNMSVDESYDQEMPCPVPPAPMYLQQDELQEEEDERGPTPPVRGAASSPAAVSYSHQSTATLTPSPQEELQPMLQDCPEDLGHMPHPPDRRRQPVSPPPPPRPISPPHTYGYISGPLVSDMDTDAPEEEEDEADMEVAKMQTRRLLLRGLEQTPASSVGDLESSVTGSMINGWGSASEEDNISSGRSSVSSSDGSFFTDADFAQAVAAAAEYAGLKVARRQMQDAAGRRHFHASQCPRPTSPVSTDSNMSAVVIQKARPAKKQKHQPGHLRREAYADDLPPPPVPPPAIKSPTVQSKAQLEVRPVMVPKLASIEARTDRSSDRKGGSYKGREALDGRQVTDLRTNPSDPREAQEQPNDGKGRGTRQPKRDLPPAKTHLGQEDILPYCRPTFPTSNNPRDPSSSSSMSSRGSGSRQREQANVGRRNMAEMQVLGGFERGDENNEELEETES
notes: also called native Robo1
B3: Carboxyl-terminal segment of Rspo1 including one TSR repeat, fused with 6-His tag (ligand, human, UniProt Q2MKA7 147-263, looked up)
chain: QCEMSEWSPWGPCSKKQQLCGFRRGSEERTRRVLHAPVGDHAACSDTKETRRCTVRRVPCPEGQKRRKGGQGRRENANRNLARKESKEAGAGSRRRKGQQQQQQQGTVGPLTSAGPA
notes: domain: carboxyl-terminus of Rspo1 containing one TSR repeat; also called rRspo1-C; Rspo1-C; not shown: 6-His tag of the PETM vector
B4: Native Rspo1 of mouse small intestinal crypts (ligand, UniProt Q9Z132 21-265, looked up)
chain: SRGIKGKRQRRISAEGSQACAKGCELCSEVNGCLKCSPKLFILLERNDIRQVGVCLPSCPPGYFDARNPDMNKCIKCKIEHCEACFSHNFCTKCQEALYLHKGRCYPACPEGSTAANSTMECGSPAQCEMSEWSPWGPCSKKRKLCGFRKGSEERTRRVLHAPGGDHTTCSDTKETRKCTVRRTPCPEGQKRRKGGQGRRENANRHPARKNSKEPRSNSRRHKGQQQPQPGTTGPLTSVGPTWAQ
B5: Extracellular Ig5 domain of Robo1 fused with GST (other, human, UniProt Q9Y6N7 455-541, looked up)
chain: PVIRQGPVNQTVAVDGTFVLSCVATGSPVPTILWRKDGVLVSTQDSRIKQLENGVLQIRYAKLGDTGRYTCIASTPSGEATWSAYIE
notes: domain: extracellular Ig5 domain; also called GST-Ig5; not shown: glutathione S-transferase of the PGEX6P1 vector

Assay [1] has as its target T1, Recombinant human Rspo1 fused with 6-His (His) tag expressed in Sf9 insect cells (human, UniProt Q2MKA7 21-263).
T1 construct: Baculovirus expression; also called rRspo1; R-spondin 1; not shown: 6-His tag
Briefly: glutathione-Sepharose pulldown, immunoblot. The procedure:
(§1) To confirm our initial findings, various deletion mutants of Robo1 fused with hemagglutin (HA) tag were employed (FIG. 15B) (see, e.g., Wong, K., et al., (2001) Cell 107, 209-221). Recombinant human Rspo1 fused with 6-His (His) tag expressed in Sf9 insect cells (rRspo1; FIG. 15C and FIG. 17B) were also purified. […] Following incubation, immunoprecipitation was performed by the anti-HA Ab, followed by immunoblotting with the Abs for rRspo1 (His) and Robo1 (HA). […] Compared to human IgG (hIgG) bound Protein A (Pro-A) beads, recombinant Robo1-Fc chimera (rRobo1-Fc; FIG. 17C) bound Pro-A beads precipitated rRspo1 (His; FIG. 15E and FIG. 16C). Additionally, rRobo1-Fc bound Pro-A beads precipitated purified recombinant Rspo1-N (rRspo1-N), but not recombinant Rspo1-C (rRspo1-C; FIGS. 15C and F and FIGS. 16D and 17B). To determine which extracellular Ig domains of Robo1 could recognize Rspo1, recombinant extracellular Ig domains 1-5 of Robo1 fused with glutathione S-transferase were constructed, expressed and purified (GST-Ig1-5; FIG. 15B and FIG. 16D).
For the pulldown assay, 3 μg of the appropriate purified GST-tagged fusion protein and isolated His-tagged fusion protein were incubated with 20 μl glutathione Sepharose beads (GE Healthcare Biosciences) in PBS containing 1% BSA at 4° C. for 2 h. […]

In assay [2] the target is T2, Native LRP6 of mouse small intestinal crypts (mouse, UniProt O88572 20-1613).
T2 construct: also called endogenous LRP6; endogenous Lrp6
Briefly: immunoprecipitation of endogenous Robo1 from crypt lysates of C57 small intestines, immunoblot (FIG. 15H).

For assay [3], the target named is T3, Recombinant human Robo1 encoding the extracellular five Ig-like domains fused with the Fc domains of human … (human, UniProt Q9Y6N7 26-540; P01857 99-330 = IgG part).
T3 construct: domain: extracellular five Ig domains (1-1621 bp);domain: Fc domains of human IgG1; also called Robo1-Fc; rRobo1-Fc
Briefly: Protein A bead pulldown, immunoblot for His. The procedure: as §1

The target of assay [4] is B2. Briefly: co-immunoprecipitation from mouse intestinal crypt lysates, immunoblot. As for the experimental part: 293 cells were co-transfected with the plasmids of Robo1 or Robo1-dCC3 and LRP6. Transfected Robo1 was immunoprecipitated by the anti-HA Ab, followed by immunoblotting for LRP6 (myc) and Robo1 (HA). (L) LRP6 interacts with CC3. 293 cells transfected with the LRP6 plasmid were incubated with rCC0/1, rCC2 and rCC3. After washing, transfected LRP6 was immunoprecipitated by the anti-HA Ab, followed by immunoblotting for rCC0/1, rCC2 and rCC3 (His) and LRP6 (myc). (M) LRP6 M3 binds to CC3. The glutathione-Sepharose beads were incubated with the GST-M1-3. After washing, they were incubated with rCC3, followed by immunoblotting for rCC3 (His) and rGST-M1-3. (N and O) Transfected Robo1 enhances LRP6 binding to LGR5. 293 cells were co-transfected with the plasmids of LGR5 and LRP6, in the presence or absence of the Robo1 plasmid (N). Alternatively, 293 cells were co-transfected with the plasmids of LGR5, LRP6 and Robo1, followed by infection with Ad-GFP or Ad-CC3 (0). Lysates of these transfectants were immunoprecipitate for LRP6 (myc) and immunoblotted for LGR5 (flag), LRP6 (myc) and Robo1 (HA), respectively. (P) Endogenous Robo1 promotes LRP6 association with LGR5. […]
This example describes Rspo1 binds to extracellular Robo1. […] Indeed, the intestinal expression of Rspo1 was detected in the tissue sections of adult small intestine (FIG. 14). […]

T3 sequence (Q9Y6N7 other isoform, or with tags, fused parts or gaps limits assumed): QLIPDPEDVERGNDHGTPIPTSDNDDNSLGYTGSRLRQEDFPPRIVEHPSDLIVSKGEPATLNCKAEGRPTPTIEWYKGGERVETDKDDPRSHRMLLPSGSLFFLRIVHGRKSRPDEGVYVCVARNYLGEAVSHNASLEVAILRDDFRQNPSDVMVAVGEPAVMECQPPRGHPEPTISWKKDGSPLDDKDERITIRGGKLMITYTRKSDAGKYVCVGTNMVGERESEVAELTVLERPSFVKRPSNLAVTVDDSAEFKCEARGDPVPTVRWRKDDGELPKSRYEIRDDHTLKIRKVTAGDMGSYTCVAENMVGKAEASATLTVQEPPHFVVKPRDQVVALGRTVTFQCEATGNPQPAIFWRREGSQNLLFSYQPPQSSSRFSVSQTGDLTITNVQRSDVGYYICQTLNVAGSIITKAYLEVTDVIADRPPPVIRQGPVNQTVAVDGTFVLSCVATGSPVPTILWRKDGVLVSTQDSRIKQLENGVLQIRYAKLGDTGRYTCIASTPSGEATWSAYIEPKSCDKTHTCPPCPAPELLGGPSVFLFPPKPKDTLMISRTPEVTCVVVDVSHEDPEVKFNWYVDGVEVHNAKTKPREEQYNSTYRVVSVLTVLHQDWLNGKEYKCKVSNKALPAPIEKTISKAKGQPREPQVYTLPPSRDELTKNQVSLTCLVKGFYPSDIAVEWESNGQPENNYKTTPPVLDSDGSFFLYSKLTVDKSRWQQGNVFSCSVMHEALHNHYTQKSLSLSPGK
T2 sequence (O88572 20-1613 limits assumed): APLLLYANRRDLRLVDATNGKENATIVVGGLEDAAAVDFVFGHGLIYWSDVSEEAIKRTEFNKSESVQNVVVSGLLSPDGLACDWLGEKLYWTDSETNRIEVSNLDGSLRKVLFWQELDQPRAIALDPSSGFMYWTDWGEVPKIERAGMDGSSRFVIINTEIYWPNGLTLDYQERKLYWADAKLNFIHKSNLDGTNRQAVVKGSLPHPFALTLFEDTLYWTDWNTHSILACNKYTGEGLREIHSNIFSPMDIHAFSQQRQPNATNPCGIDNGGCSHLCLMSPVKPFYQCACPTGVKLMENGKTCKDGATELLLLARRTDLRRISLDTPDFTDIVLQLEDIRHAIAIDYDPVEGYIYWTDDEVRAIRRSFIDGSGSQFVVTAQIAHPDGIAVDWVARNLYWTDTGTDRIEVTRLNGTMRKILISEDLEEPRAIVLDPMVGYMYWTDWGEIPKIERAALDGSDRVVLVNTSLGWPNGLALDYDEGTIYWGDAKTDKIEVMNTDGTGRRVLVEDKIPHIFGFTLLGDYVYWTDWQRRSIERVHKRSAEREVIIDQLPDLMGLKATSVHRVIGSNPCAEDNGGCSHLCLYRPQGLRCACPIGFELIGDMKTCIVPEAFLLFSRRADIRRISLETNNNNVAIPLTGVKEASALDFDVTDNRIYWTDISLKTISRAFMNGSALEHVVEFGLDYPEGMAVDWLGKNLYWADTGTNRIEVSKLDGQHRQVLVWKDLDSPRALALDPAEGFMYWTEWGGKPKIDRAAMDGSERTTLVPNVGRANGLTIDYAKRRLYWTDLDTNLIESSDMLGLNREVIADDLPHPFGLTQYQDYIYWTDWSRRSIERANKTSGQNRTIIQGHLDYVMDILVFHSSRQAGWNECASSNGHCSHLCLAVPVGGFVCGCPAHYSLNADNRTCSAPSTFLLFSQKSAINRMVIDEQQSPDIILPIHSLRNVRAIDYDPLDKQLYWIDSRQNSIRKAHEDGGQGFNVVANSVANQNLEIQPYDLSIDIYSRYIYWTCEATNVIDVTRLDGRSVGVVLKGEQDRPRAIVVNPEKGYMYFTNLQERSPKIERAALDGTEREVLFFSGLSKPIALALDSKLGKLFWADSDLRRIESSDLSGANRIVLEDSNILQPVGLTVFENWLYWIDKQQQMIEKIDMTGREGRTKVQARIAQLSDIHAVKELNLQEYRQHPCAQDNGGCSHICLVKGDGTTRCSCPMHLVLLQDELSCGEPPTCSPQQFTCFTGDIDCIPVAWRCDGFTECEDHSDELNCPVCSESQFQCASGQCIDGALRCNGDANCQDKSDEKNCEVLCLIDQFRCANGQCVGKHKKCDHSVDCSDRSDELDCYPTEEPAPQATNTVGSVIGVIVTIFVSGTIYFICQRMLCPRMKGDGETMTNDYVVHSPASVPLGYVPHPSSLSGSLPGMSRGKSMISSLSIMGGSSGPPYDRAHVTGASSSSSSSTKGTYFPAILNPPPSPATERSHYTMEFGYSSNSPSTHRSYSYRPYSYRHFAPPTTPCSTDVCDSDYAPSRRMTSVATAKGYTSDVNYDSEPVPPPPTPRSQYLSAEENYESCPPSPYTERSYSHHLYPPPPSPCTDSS

As to B1, in assay [1], the binding result is reported as “no binding”.
As to B2, the binding result in assay [2] is given as “binds”.
Turning to B3, in assay [3], the binding result was “no binding”.
B4: the binding result in assay [4] is “binds”.
As for B5, the binding result in assay [1] was “no binding”.
